{
  "source": "patent US20030170730A1",
  "about": "“Assay method, peptides and reagent kits for testing mrp-specific inhibitors” (priority 2000, published 2003)",
  "molecules": {"B1": {"name": "L0: amino acids 204-281, representing the N-terminal linker region of MRP1, expressed as a separate peptide (protein, UniProt P33527 204-281, looked up, fragment)", "chain": "DPNPCPESSASFLSRITFWWITGLIVRGYRQPLEGSDLWSLNKEDTSEQVVPVLVKNWKKECAKTRKQPVKVVYSSKD", "modifications": "L0 linker region", "notes": "amino acids 204-281, representing the N-terminal linker region of MRP1, expressed as a separate peptide"}},
  "key": {"[1]": {"tested_on": "MDCKII-ΔMRP1 cells", "assay": "Immunolocalization of L0 co-expressed with ΔMRP1 in MDCKII monolayers (rescue to plasma membrane)", "format": "cell-based", "settings": "pool of puromycin resistant MDCKII-ΔMRP1 cells", "excerpt": "L0 was detected by indirect immunofluorescence with mAb R1 (green color, light signal in the lateral membrane). […] The arrow head indicates the position where the section was made. Nucleic acids were counterstained with propidium iodide (red signal).\nFor expression of MRP1 variants in MDCKII cells, the L0MDR1 chimera, ΔMRP1, and MRP1Δ(223-232) were inserted as blunt-end fragments into the retroviral vector pCMV-neo as described [Bakos É et al, (1998), see above]. For co-expression experiments the L0 fragment was cloned into the pBabe-Puro-CMV vector (kindly provided by Dr. J. Wijnholds, The Netherlands Cancer Institute, Amsterdam, The Netherlands). This vector was generated by cloning the blunt-ended HindIII fragment from pCMV-neo (containing the CMV early promoter) into the blunt-ended BamHI site of the pBabe-puro vector [Morgenstern J. P., and Land, H. (1990) Nucleic Acids Res. 18, 3587-3596]. Cells were retrovirally-transduced as described before [Evers, R. Kool, M., van Deemter, L., Janssen, H., Calafat, J., Oomen, L. C., Paulusma, C. C., Oude Elferink R. P., Baas, F., Schinkel, A. H., and Borst P. (1998) J. Clin Invest. 101, 1310-1319]. MDCKII cells stably transduced with the pBabe-Puro or pCMV-neo vector were selected for 4-6 days in medium containing puromycin (3 μg/ml) or for 7 days in medium containing G-418 (800 μg/ml), respectively. […]"}, "[2]": {"target": "T1, ΔMRP1 (Homo sapiens, UniProt P33527)", "T1 construct": "An N-terminally truncated MRP1 (amino acids 281-1531); made in house; host or cells: baculovirus-infected Sf9 cells, membrane vesicles", "T1 sequence (P33527 281-1531, stated change not applied)": "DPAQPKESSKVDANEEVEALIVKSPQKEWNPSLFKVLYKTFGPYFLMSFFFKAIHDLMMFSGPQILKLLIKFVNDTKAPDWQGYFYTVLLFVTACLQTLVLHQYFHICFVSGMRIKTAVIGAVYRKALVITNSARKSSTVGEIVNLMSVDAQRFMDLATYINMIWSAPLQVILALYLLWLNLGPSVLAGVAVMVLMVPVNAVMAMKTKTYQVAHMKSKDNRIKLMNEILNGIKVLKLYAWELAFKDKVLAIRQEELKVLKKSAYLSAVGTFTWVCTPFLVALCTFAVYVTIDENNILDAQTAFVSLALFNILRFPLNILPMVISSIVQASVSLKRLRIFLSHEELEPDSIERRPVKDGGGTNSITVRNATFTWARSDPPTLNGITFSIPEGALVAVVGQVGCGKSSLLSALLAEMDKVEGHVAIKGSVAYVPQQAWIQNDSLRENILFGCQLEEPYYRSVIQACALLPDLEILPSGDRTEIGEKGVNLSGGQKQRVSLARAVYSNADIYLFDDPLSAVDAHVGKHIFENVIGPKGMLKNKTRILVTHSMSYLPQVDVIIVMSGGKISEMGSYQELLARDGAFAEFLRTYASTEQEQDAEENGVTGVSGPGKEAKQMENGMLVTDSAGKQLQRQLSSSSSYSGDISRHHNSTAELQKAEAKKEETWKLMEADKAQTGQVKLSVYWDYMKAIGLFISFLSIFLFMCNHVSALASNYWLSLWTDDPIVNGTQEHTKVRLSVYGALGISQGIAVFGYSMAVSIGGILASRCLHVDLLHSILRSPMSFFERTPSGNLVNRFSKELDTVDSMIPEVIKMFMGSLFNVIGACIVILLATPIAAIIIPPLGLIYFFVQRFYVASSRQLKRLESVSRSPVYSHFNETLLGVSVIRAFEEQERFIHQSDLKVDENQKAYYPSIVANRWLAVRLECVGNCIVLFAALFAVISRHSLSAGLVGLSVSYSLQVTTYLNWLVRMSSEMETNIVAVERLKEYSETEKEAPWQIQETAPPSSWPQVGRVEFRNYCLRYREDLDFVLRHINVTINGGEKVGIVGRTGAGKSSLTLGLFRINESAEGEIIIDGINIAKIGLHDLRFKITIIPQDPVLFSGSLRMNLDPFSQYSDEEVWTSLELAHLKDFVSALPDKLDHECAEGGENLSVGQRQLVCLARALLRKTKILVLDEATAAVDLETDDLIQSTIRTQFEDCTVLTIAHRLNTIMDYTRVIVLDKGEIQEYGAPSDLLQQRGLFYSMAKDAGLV", "assay": "Restoration of ΔMRP1 transport activity by L0 peptides (vesicular LTC4 / NEM-GS uptake, Sf9 membranes)", "format": "biochemical", "description": "The obtained pCLTRX-L0 vector was cloned to E. coli BL21 (DE3) cells, which in turn were grown in TYBG antibiotic broth (10 g tryptone, 10 g yeast extract, 4 g glucose, pH 7.2, 100 μg/ml ampicillin, 25 μg/ml kanamycine) at 37° C. When OD(600) exceeded 1.1 cells were pelleted by centrifugation, suspended in M9 medium, the incubated at 28° C. for 30 min. Afterwards, expression was induced by IPTG for 2 hours. When the induction was finished, cells were pelleted by centrifugation and the pellet was washed with 20% sacharose, then suspended in a solution comprising 20% agarose, 10 mM Tris and 0.1 μg/ml lysosyme (pH 7.2) and incubated for 30 min at 4° C. then sonicated. The lysed cells were pelleted by centrifugation (20000 g, 20 min). The so obtained lysate was used in the further experiments, for studying the restoration of the transport activity.\nIn order to correctly determine the transport function of the different MRP1 proteins, we estimated the relative amount of transport-competent inside-out vesicles in the Sf9 membrane preparations [Bakos É. et al, (1998), see above], and corrected the transport rates according to the relative MRP1 expression levels, as determined by immunoblotting."}, "[3]": {"target": "MRP1 variants (Homo sapiens, UniProt P33527)", "assay": "Vanadate-dependent nucleotide trapping by MRP1 variants in Sf9 membranes", "settings": "L0 peptide co-expressed with ΔMRP1"}},
  "data": [
    {"molecule": "B1", "values": [
      {"measurement": "localization of L0 (mAb R1 staining)", "setting": "[1]", "value": "clear lateral plasma membrane staining"},
      {"measurement": "uptake of LTC4 on co-expression with ΔMRP1", "setting": "[2]; at 50 nM LTC4, Sf9 vesicles", "value": "about 90 % of MRP1"},
      {"measurement": "uptake of NEM-GS on co-expression with ΔMRP1", "setting": "[2]; at 50 μM NEM-GS, Sf9 vesicles", "value": "about 40 % of MRP1"},
      {"measurement": "restoration of nucleotide trapping of ΔMRP1", "setting": "[3]", "value": "the full activity was restored"}
    ]}
  ]
}
